{"source": "patent CN106478818A", "about": "(JIANGSU NOVOMAB BIOPHARMACEUTICALS INC, dated 2017)", "key": {"[1]": {"target": "T1, TEM8 on TEM8稳定过表达细胞株 (CHO-K1 cells stably transfected with the full-length TEM8 gene) (human, UniProt Q9H6X2 33-564)", "T1 construct": "also called TEM8过表达细胞; 细胞膜TEM8", "assay": "cell-based binding on plated TEM8-overexpressing cells, anti-human-Eu, time-resolved fluorescence"}, "[2]": {"target": "T2, 重组TEM8蛋白 (recombinant TEM8 protein, 北京义翘神州生物技术有限公司) (UniProt Q9H6X2 33-321, limits assumed)", "T2 construct": "Bought recombinant protein coated on an ELISA plate; also called TEM8重组蛋白; 肿瘤内皮标记物8", "T2 sequence (looked up)": "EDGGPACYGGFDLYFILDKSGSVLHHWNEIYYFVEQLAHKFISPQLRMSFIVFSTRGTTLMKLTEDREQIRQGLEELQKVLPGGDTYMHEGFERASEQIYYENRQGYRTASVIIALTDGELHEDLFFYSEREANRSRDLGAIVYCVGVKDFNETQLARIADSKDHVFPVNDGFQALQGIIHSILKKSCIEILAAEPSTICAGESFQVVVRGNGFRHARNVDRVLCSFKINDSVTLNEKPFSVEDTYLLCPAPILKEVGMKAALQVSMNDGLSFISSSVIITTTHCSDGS", "assay": "ELISA, TEM8 protein coated, antibody in 1:4 serial dilution, anti-human IgG-HRP"}}, "data": [{"binder": "NMT802 (antibody, human IgG1, kappa, V domains shown, also called 单克隆抗体NMT802; NMT802抗体) VH: EVTLKESGPALVKPTQTLTLTCTFSGFSLSTSGMGVGWIRQPPGKALEWLAHIWWDDVKRYYPALKSRLTISKDTSKSQVVLTMTNMDPADTATYYCARIGYDWFPYWGQGTLVTVSS VL: DIQMTQSPSFLSASVGDRVTITCKASQNVGIAVAWYQQKPGKAPKLLIYSASNRYTGVPSRFSGSGSGTDFTLTISYLQSEDFATYYCQQYRSYPLTFGGGTKVEIKR", "values": [{"measurement": "EC50", "setting": "[1]", "value": 0.133, "unit": "µg/mL"}, {"measurement": "EC50", "setting": "[2]", "value": 0.0324, "unit": "µg/mL"}]}, {"binder": "NMT803 (antibody, V domains shown, also called 单克隆抗体NMT803) VH: EVTLKESGPALVKPTQTLTLTCTFSGFSLSTSGMGVGWIRQPPGKALEWLAHIWWDDVKQYYPALKSRLTISKDTSKSQVVLTMTNMDPVDTATYYCARIGYDWFPYWGQGTLVTVSS VL: DIQMTQSPSFLSASVGDRVTITCKASQNVGIAVAWYQQKPGKAPKLLIYSASNRYTGVPSRFSGSGSGTDFTLTISCLQSEDFATYYCQQYRFKPLTFGGGTKVEIK", "values": [{"measurement": "EC50", "setting": "[1]", "value": 0.765, "unit": "µg/mL"}, {"measurement": "EC50", "setting": "[2]", "value": 0.00544, "unit": "µg/mL"}]}]}
